Reference: patent US20180263927A1

Target: PSA (prostate specific antigen) (UniProt P07288)
Assay: cell-based or functional assay

Sequence of UniProt P07288 (P07288 25-261 limits assumed): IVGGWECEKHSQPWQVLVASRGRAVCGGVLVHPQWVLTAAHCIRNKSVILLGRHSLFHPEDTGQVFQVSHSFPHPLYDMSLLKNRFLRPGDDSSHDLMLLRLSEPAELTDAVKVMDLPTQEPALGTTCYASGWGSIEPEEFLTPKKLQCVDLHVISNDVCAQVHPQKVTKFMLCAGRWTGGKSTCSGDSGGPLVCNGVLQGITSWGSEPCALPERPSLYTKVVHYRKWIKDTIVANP

Analog 221 (211/amide or nonester) Mu-His-Ser-Ser-Lys(Fmoc)-Leu-Gln-Leu (peptide)
cytotoxicity IC50, 48 hour exposure, Prostate DuPro cells (trace PSA): 13 µM | cytotoxicity IC50, 48 hour exposure, Prostate LnCAP cells (positive PSA): 0.8 µM | cytotoxicity IC50, 48 hour exposure, Prostate PC3 cells (negative PSA, control): > 21 µM
